# Laboratory results taken from patent US20140206846A1 (published 2014).
# B1: IL6 P (Fab, V domains shown)
# VH: EVQLVESGGGLVQPGGSLRLSCAASGFTFSSYAMSWIRQAPGKGLEWIGQISGSGGSTVYNYNVLGRFTISRDNSKNTLYLQMNSLRAEDTAVYYCARDSGYFDIWGQGTLVTVSS
# VL: NIQKTQSPSSLSASVGDRVTITCRALWHISSYLAWYQQKPGKAPKLLIYAASSLYSGVPSRFSGSGSGTDFTLTISSLQPEDFATYYCQQYSGLPYTFGQGTKVEIKR
# B2: VH6L (bispecific antibody, V domains shown)
# VH: YYQLVESGGGLVQPGGSLRLSCAADGFLFSGYAMSWIRQAPGKGLEWIGQISGSGGSTVYNYNVLGRFTISRDNSKNTLYLQMNSLRAEDTAVYYCARDTGYFDHWGQGTLVTVSS
# VL: NIQKTQSPSSLSASVGDRVTITCRALWHISSYLAWYQQKPGKAPKLLIYAASHLHYGVPSRFSGSGSGTDFTLTISSLQPEDFATYYCQQYSGLPYTFGQGTKVEIK
# B3: Fab DT3 (bispecific antibody, V domains shown)
# VH: WVQLVESGGGLVQPGGSLRLSCAARGFPFSHYAMSWIRQAPGKGLEWIGQISGSGGSTWYNHDIKGRFTISRDNSKNTLYLQMNSLRAEDTAVYYCARDSGYFDWWGQGTLVTVSS
# VL: GIQMTQSPSSLSASVGDRVTITCRARWYISSYLAWYQQKPGKAPKLLIFAASRLILNVPSRFSGSGSGKDFTLTISSLQPEDFATYYCQQYSELPYTFGQGTKVEIK
# B4: GH6L (bispecific antibody, V domains shown)
# VH: WVQLVESGGGLVQPGGSLRLSCAAKGALFSTYAMSWIRQAPGKGLEWIGQISGSGGSTVYNYNVLGRFTISRDNSKNTLYLQMNSLRAEDTAVYYCARDSGYFDIWGQGTLVTVSS
# VL: ATQRTQSPSSLSASVGDRVTITCRALWHISSYLAWYQQKPGKAPKLLIYAASWLYWDVPSRFSGSGSGTDFTLTISSLQPEDFATYYCQQYSGLPYTFGQGTKVEIK
# How the values were obtained:
# VEGF = target: T1, VEGF (human, UniProt P15692 27-191); assay: Biacore
# T1 chain: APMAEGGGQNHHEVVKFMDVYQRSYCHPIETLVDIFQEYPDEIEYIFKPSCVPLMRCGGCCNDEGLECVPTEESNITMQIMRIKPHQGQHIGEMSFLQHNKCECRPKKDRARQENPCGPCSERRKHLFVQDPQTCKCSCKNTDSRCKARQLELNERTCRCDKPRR
# IL6 = IL6 (human, UniProt P05231 30-212); assay: Biacore
# human IL6 [1] = target: T2, human IL6 (human, UniProt P05231 30-212); assay: Biacore
# MBP = assay: Biacore
# GST = assay: Biacore
# human IL6 [2] = target: T2, human IL6; assay: Biacore; captured on anti-LC
# human IL6 [3] = target: T2, human IL6; assay: Biacore; captured on GMCSF
# T2 sequence (P05231 30-212): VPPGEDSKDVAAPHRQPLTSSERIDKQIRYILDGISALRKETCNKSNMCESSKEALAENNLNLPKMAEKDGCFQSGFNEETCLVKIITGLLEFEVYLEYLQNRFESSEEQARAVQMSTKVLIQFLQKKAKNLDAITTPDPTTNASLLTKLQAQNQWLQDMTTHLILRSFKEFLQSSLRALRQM
# Chain of IL6 (P05231 30-212): as above
binder,measurement,setting,value
B1,koff,VEGF,0.00204 s⁻¹
same,koff,IL6,0.00413 s⁻¹
B2,koff,human IL6 [1],0.00472 s⁻¹
B3,Kd,MBP,313 nM
same,Kd,GST,17 nM
B4,Kd,human IL6 [2],30.4 nM
same,Kd,human IL6 [3],18.7 nM
